Results as given in paper PMC4961952 (Scientific Reports, 2016).

B1: TH1(ZZ): recombinant human tyrosine hydroxylase isoform 1, purified on TALON resin as His6-ZZ-TH1 and cleaved by TEV protease (enzyme)
chain: not shown
notes: residues glycine and alanine left in front of the starting methionine after removal of the fusion partner (told in words); tyrosine hydroxylase isoform 1 (TH1), human, 497 residues (Met1-Gly497); cDNA from pET-TH cloned into pET-ZZ-1a; extra glycine in position 2 from cloning; numbers count on: human TH1; Contains cobalt from the TALON resin (0.70 mol/mol subunit); After cleavage the chain is the …
B2: TH1(MBP): recombinant human tyrosine hydroxylase isoform 1, purified on amylose resin as His6-MBP-TH1 and cleaved by TEV protease (enzyme)
chain: not shown
notes: residues glycine and alanine left in front of the starting methionine after removal of the fusion partner (told in words); tyrosine hydroxylase isoform 1 (TH1), human, 497 residues (Met1-Gly497); cDNA from pET-TH cloned into pET-MBP-1a; extra glycine in position 2 from cloning; numbers count on: human TH1; Iron-containing preparation (0.25 mol/mol subunit), no cobalt; After cleavage the chain is …

Target: the molecule itself
Experiment: SEC; analytical gel filtration of the TEV-cleaved fusion protein on a Superdex 200 Increase 10/300 column

Row | Protein | stoichiometry N
1 | B1 | 4
2 | B2 | 4
